Assay [1] deals with GST-RhoA^V14 (constitutively active RhoA) (UniProt P61586). Nature of the assay: pull-down.
Assay [2] concerns the target GST-RhoA^N19 (inactive RhoA) (UniProt P61586). The assay is described as follows: pull-down.

In the case of “HA-tagged wild-type diacylglycerol kinase ζ (HA-DGKζ) (enzyme)”, the fold change of binding after PMA against vehicle control in assay [1] and in assay [2] was 2 fold in each case.

These data come from article doi:10.1101/2020.07.08.194100.
